Results on three molecules are retold here after US20190023809A1, “ANTI-NICOTINAMIDE PHOSPHORIBOSYLTRANSFERASE ANTIBODY GENES AND METHODS OF USE THEREOF” (The Children's Mercy Hospital, priority 2015, published 2019).

Series [1] has as its system SP-B. Description: SP-B expression in H441 cells pretreated with FK866, without or with TNF-α (western blot). In kind it is cell-based, human. As for the experimental part: FIG. 21 illustrates NAMPT inhibited SP-B expression via both its nonenzymatic and enzymatic activity. (A) H441 cells were transfected with either pCAGGS, pCAGGS-hNAMPT or pCAGGS-H247E. Cell lysate of NAMPT (10 μg), SP-B (30 μg) and GAPDH (10 μg) proteins were detected by western blot. Protein bands were quantified by densitometry using image J, and NAMPT levels (B) and SP-B levels (C) were normalized to GAPDH levels. Values are means±SD of 3 independent experiments. *p<0.05 vs. pCAGGS cells; #p<0.05 vs pCAGGS-hNAMPT cells. (D) H441 cells were pretreated with different doses of FK866 for 6 h before treatment without or with TNF-α (25 ng/ml) for 24 hours. Cell lysate of NAMPT (10 μg), SP-B (30 μg) and GAPDH (10 μg) proteins were detected by western blot. Protein bands were quantified by densitometry using image J, and NAMPT levels (E) and SP-B levels (F) were normalized to GAPDH levels. Values are means±SD of 3 independent experiments. *p<0.05 vs cells without FK866 or rhTNF-α treatment. #p<0.05 vs cells pretreated with FK866 but without rhTNF-α treatment;
This example determined that NAMPT inhibits SP-B expression mainly via its nonenzymatic activity and partly via its enzymatic activity. […]
Background: In western blotting, separated proteins are transferred to a membrane and probed.

Series [2] concerns CIA. To be noted: CIA mice; cited from earlier work.
The conditions of series [3]: cited from earlier work.
The subject of series [4] is cell NAD synthesis. Description: NAD synthesis by transfected 3T3-L1 cells (Amplite Fluorimetric NAD/NADH Ratio Assay Kit). In kind it is cell-based, mouse. How it is done: FIG. 1D is a graphic representation of the results of assay of NAD synthesis by 3T3-L1 cells transfected with scFv1 or pCAGGS control. After 72 h NAD synthesis was measured by Amplite™ Fluorimetric NAD/NADH Ratio Assay Kit (AAT Bioquest®, Inc. prod. number 15263). Values are means±SD, N=4, p≤0.005. Ab1, antibody 1; Ab2, antibody 2;
(§1) In one embodiment of the present disclosure, as best shown in FIG. 1A, the cDNA for each single-chain variable fragment (scFv) antibody was cloned, including a histidine tag on the 3′ end, into the pCAGGS expression vector. The VH and VL fragments for each scFv are separated by a (G4S)3 linker and encode proteins of 247 and 249 amino acids, respectively for NAMPT-scFv1 (antibody 1 or Ab1) and scFv2 (antibody 2 or Ab2) (FIG. 1B). To test the anti-NAMPT ability of each construct, MTS assays were performed in transfected 3T3-L1 (ATCC CL-173™) and RAW 264.7 (ATCC® TIB-71™) cells.

Series [5] can be described thus: Cell culture experiments: cell death. In kind it is cell-based.
Source text: as §1

Series [6] has as its system 3T3-L1 cells. The series can be described thus: MTS / CellTiter 96 AQueous One cell proliferation assay in transfected 3T3-L1 cells. The series is classed as cell-based, mouse. Conditions: for decreased proliferation as compared to the pCAGGS control population: fibroblasts, FIG. 1C; for proliferation of mouse 3T3: transfected cells, preliminary result. How it is done:
FIG. 1C is a graphic representation of the results of assay of cell proliferation of 3T3-L1 cells transfected with scFV1 and scFv2 or pCAGGS control. After 72 h, cell proliferation was assayed by CellTiter 96® AQueous One Solution Cell Proliferation Assay (Promega, cat #G3582). Values are means±SD, N=12, * p≤0.001;
as §1
We expressed and purified recombinant mouse NAMPT protein and obtained two human against mouse NAMPT antibody gene clones, termed NAMPT-scFv1 (Ab1) and -scFv2 (Ab2), by screening a HuScL-2™ Phage Display Naïve Human scFv Library (www.creative-biolabs.com/). We cloned the cDNAs for each scFv, including a histidine-tag on the 3′ end, into the pCAGGS expression vector. The VH and VL fragments for each scFv are separated by a (G4S)3 linker and encode proteins of 247 and 249 amino acids, respectively for NAMPT-scFv1 and -scFv2. To test the anti-NAMPT ability of each construct, we performed MTS assays in transfected 3T3-L1 (ATCC® CL-173™) and RAW 264.7 (ATCC® TIB-71™) cells. […] To increase the specificity of these constructs we generate a hetero-dimer and a hetero-tetramer using established procedures. The hetero-dimer [scFv1-scFv2], also called a di-body, is separated by a GGSSRSSSSGGGGSGGGG linker. The hetero-tetramer, also called a tetra-body, consists of two dimers [scFv1-scFv2]2 joined by the HIV1 P21 capsid protein linker, GATPQDLNTML. The P21 linker is an epitope for the murine monoclonal CB4-1 antibody. […] Thus, we utilize the CB4-1 antibody and nickel-columns (His-Tag) to manipulate and purify our recombinant scFv antibodies. We enhance the specificity and tertiary structures of the di-body and tetra-body by modifying the type and length of the linker sequences. Their antisense clone of NAMPT-scFv1 and -scFv2 is used as controls. Since similar effects in in vitro assay were observed, only NAMPT-scFv1 and its antisense clone are used to prepare the constructs under the control of either the human MRP8 promoter or mouse MPO promoter for tissue specific expression in neutrophils or neutrophils and monocytes, respectively.

The test system of series [7] is human a549 cell. The series can be described thus: Proliferation of human a549 cell (data not shown). The series is classed as cell-based.
Series [8] relates to macrophage cell lines. Description: MTS proliferation assay in transfected macrophage cell lines (RAW 264.7). In kind it is cell-based, mouse. Conditions: data not shown.
Source text: as §1
We expressed and purified recombinant mouse NAMPT protein and obtained two human against mouse NAMPT antibody gene clones, termed NAMPT-scFv1 (Ab1) and -scFv2 (Ab2), by screening a HuScL-2™ Phage Display Naïve Human scFv Library (www.creative-biolabs.com/). We cloned the cDNAs for each scFv, including a histidine-tag on the 3′ end, into the pCAGGS expression vector. The VH and VL fragments for each scFv are separated by a (G4S)3 linker and encode proteins of 247 and 249 amino acids, respectively for NAMPT-scFv1 and -scFv2. To test the anti-NAMPT ability of each construct, we performed MTS assays in transfected 3T3-L1 (ATCC® CL-173™) and RAW 264.7 (ATCC® TIB-71™) cells. […] To increase the specificity of these constructs we generate a hetero-dimer and a hetero-tetramer using established procedures. […]

On to `O=C(/C=C/c1cccnc1)NCCCCC1CCN(C(=O)c2ccccc2)CC1` [FK866], for which the “rescue of TNF-α induced inhibition of SP-B” value in series [1] (FK866 6 h then TNF-α 25 ng/ml 24 hours) is given as “did not significantly rescue”. The SP-B expression entry in series [1] (FK866 pretreatment 6 h) is given as “increased”. The “severity and progression of arthritis” value in series [2] is reported as “effectively reduce”. Besides, in series [3], the “side effect in humans” value was “thrombocytopenia”.

B1: Ab1: anti-NAMPT single-chain variable fragment antibody clone, 247 amino acids, SEQ ID NO 1/2, in pCAGGS expression vector (protein, listed as Homo sapiens)
scFv: MEVQLLESGGGLVQPGGSLRLSCAASGFTFSSYAMSWVRQAPGKGLEWVSVINVPGNRTSYADSVKGRFTISRDNSKNTLYLQMNSLRAEDTAVYYCAKKTRRFDYWGQGTLVTVSSGGGGSGGGGSGGGGSTDIQMTQSPSSLSASVGDRVTITCRASQSISSYLNWYQQKPGKAPKLLIYGASVLQSGVPSRFSGSGSGTDFTLTISSLQPEDFATYYCQQRVRSPATFGQGTKVEIKRHHHHHH
modifications: (32)..(36) CDR1; (51)..(70) CDR2 scFv1; (99)..(105) CDR3 scFv1; (157)..(167) CDR4; (183)..(189) CDR5 scFv1; (224)..(230) CDR6 scFv1; (242)..(247) Histidine Tag
With B1, the “NAD synthesis, FIG. 1D values (Avg±SD)” value in series [4] (3T3-L1 cells transfected, after 72 h, pCAGGS control, N=4) is 68.3%+10.4. Also, the “cell NAD synthesis” value in series [4] (transfected cells) is “inhibited cell NAD synthesis”. Also, the cell death result in series [5] was “induce cell death”. In series [6], the “decreased proliferation as compared to the pCAGGS control population” value is reported as “about 50%” and the “proliferation of mouse 3T3” value is listed as “inhibit proliferation”. Besides, the “proliferation of human a549 cell” value in series [7] was “inhibited proliferation”. Besides, the “proliferation of macrophage cell lines” value in series [8] was “inhibit proliferation”.

B2: Ab2: anti-NAMPT single-chain variable fragment antibody clone, 249 amino acids, SEQ ID NO 3/4, in pCAGGS expression vector (protein, listed as Homo sapiens)
scFv: MEVQLLESGGGLVQPGGSLRLSCAASGFAFSSYAMSWVRQAPGKGLEWVSNISGRGAKTTYADSVKGRFTISRDNSKNTLYLQMNSLRAEDTAVYYCAKTYLVFDYWGQGTLVTVSSGGGGSGGGGSGGGGSTDIQMTQSPSSLSASVGDRVTITCRASQSISSYLNWYQQKPGKAPKLLIYRASSLQSGVPSRFSGSGSGTDFTLTISSLQPEDFATYYCQQISATPTTFGQGTKVEIKRAAHHHHHH
modifications: (32)..(36) CDR1; (41)..(60) CDR2 scFv2; (90)..(96) CDR3 scFv3; (108)..(122) 15-mer linker sequence; (147)..(157) CDR4; (173)..(180) CDR5 scFv2; (214)..(220) CDR6 scFv2; (234)..(239) Histidine Tag
Consider B2, for which the cell death result in series [5] is “induce cell death”. Further, the “cell proliferation, FIG. 1C values (Avg±SD)” value in series [6] (3T3-L1 cells transfected, after 72 h, pCAGGS control, N=12) is on record as 49.8%+4.6. In series [6], the “decreased proliferation as compared to the pCAGGS control population” value is reported as “about 50%” and the “proliferation of mouse 3T3” value is “inhibit proliferation”. Besides, the “proliferation of human a549 cell” value in series [7] was “inhibited proliferation”. Further, the “proliferation of macrophage cell lines” value in series [8] is given as “inhibit proliferation”.
